# In patent publication US20210170043A1, “DC-SIGN ANTIBODY CONJUGATES COMPRISING STING AGONISTS” (NOVARTIS AG, priority 2018, published 2021):
# B1: 2B2 (DAPA) C1 (conjugate)
# heavy: QVQLVQSGAEVKKPGASVKVSCKASGYTFTNYGINWVRQAPGQRLEWMGYIYIGNDYTEYNERFKGRVTITSDTSASTAYMELSSLRSEDTAVYYCARLYYGSSLYSYAMDYWGQGTTVTVSSASTKGPSVFPLAPSSKSTSGGTAALGCLVKDYFPCPVTVSWNSGALTSGVHTFPAVLQSSGLYSLSSVVTVPSSSLGTQTYICNVNHKPSNTKVDKRVEPKSCDKTHTCPPCPAPELLGGPSVFLFPPKPKDTLMISRTPEVTCVVVAVSHEDPEVKFNWYVDGVEVHNAKTKPREEQYNSTYRVVSVLTVLHQDWLNGKEYKCKVSNKALAAPIEKTISKAKGQPREPQVYTLPPSREEMTKNQVSLTCLVKGFYPCDIAVEWESNGQPENNYKTTPPVLDSDGSFFLYSKLTVDKSRWQQGNVFSCSVMHEALHNHYTQKSLSLSPGK
# light: DIVMTQSPLSLPVTPGEPASISCRSSKSLLHSSGNTYLYWFLQKPGQSPQLLISRMSNLASGVPDRFSGSGSGTDFTLKISRVEAEDVGVYYCMQHLEYPYTFGGGTKVEIKRTVAAPSVFIFPPSDEQLKSGTASVVCLLNNFYPREAKVQWKVDNALQSGNSQESVTEQDSKDSTYSLSSTLTLSKADYEKHKVYACEVTHQGLSSPVTKSFNRGEC
# Tests used:
# M2 macrophages = assay: Activation of human M2 macrophages (M2 moMacs) in vitro, flow cytometry; format: cell-based; conditions: 24 hours incubation
# Method: Primary human monocytes were isolated from a leukapheresis using magnetic bead selection and frozen for storage in liquid nitrogen. For monocyte DC (moDC) differentiation, cells were thawed and incubated in media containing GM-CSF and IL-4 for 7 days. For M2 macrophages (M2 moMacs), cells were thawed and incubated for 6 days with M-CSF containing media and then polarized with the addition of IL-4 for 24 hours. After the differentiation process for both moDC and moMacs, media was washed off and replaced with fresh media containing isotype control (DAPA version of Trastuzumab) C1, or DC-SIGN antibody C1 conjugates. Free T1-1 compound was used as a control. 24 hours after incubation with indicated compounds, cells were evaluated by flow cytometry for activation.
# Peripheral blood Leukopaks from normal human donors were obtained from HemaCare. […]
# Human CD14+ monocytes were isolated and frozen as described. […] Cells were counted and plated at 40,000-80,000 cells per well in a 384 well flat bottom tissue culture plate (Greiner). […]
# 24 hours after activation with compounds, cells were evaluated by flow cytometry according to the described protocol using antibody clones described in flow cytometry protocol section. DC-SIGN+CD11c+ HLA-DR+ cells were identified and assessed for CD86 expression and levels of DC-SIGN.
# [1] = tested on: transgenic mice expressing human DC-SIGN gene (Tg+); assay: Splenic dendritic cell activation in human DC-SIGN transgenic mice, flow cytometry; format: in vivo, mouse; conditions: 24 hours post dose
# Method: Blood was collected at 6 hours post dose to analyze plasma cytokine and chemokine levels and spleens were analyzed at 24 hours post dose to look at dendritic cell activation.
# Spleens were harvested 24 hours post dose and analyzed by flow cytometry to look at CD11c+ dendritic cells.
# Tumors and/or spleens were extracted at the timepoints indicated from animals. Spleens were processed into a single cell suspension using glass slides and passed through a 100 micron mesh filter. Spleens were lysed in 1 mL of ACK lysis buffer (Life Technologies) for 5 minutes at room temperature. […]
# 1-2 million cells for each sample were then stained with a cocktail of antibodies to determine impact of the treatments on dendritic cells, myeloid cells and T cells. […] After staining, cells were evaluated on the BD LSRFortessa™ cell analyzer (BD Biosciences, San Jose, Calif.). […]
# [2] = tested on: transgenic mice expressing human DC-SIGN gene (Tg+); assay: Plasma cytokine production in transgenic mice expressing human DC-SIGN (ELISA / MesoScaleDiscovery); format: in vivo, mouse
# Method: FIGS. 5A-5E show exemplary data on DC-SIGN immunoconjugates inducing cytokine production in Tg+ mice. […] Plasma levels were analyzed by ELISA (IP-10 and IFNβ) or MesoScaleDiscovery Multiplex analysis (all other analytes). **** denotes p value of <0.0001 using an ANOVA with Tukey's test compared to Tg-2B2 hlgG1 DAPA C1 group.
# Mice were bled 6 hours after dosing to collect plasma for analysis of circulating cytokine levels.
molecule,measurement,setting,value
B1,downregulation of DC-SIGN on macrophages,M2 macrophages,induced downregulation of DC-SIGN
same,macrophage activation as measured by CD86 upregulation,M2 macrophages,induced monocyte dendritic cell and macrophage activation
same,CD86 upregulation on splenic dendritic cells,"[1]; 1 mg/kg i.v. (Fab2 1.33 mg/kg, Fab 1.3 mg/kg)",significantly upregulated
same,CD80 upregulation on splenic dendritic cells,[1]; 1 mg/kg i.v.,significantly upregulated
same,circulating plasma IL-12p70,[2],increased
same,circulating plasma IP-10,[2],increased
same,circulating plasma TNFα,[2],increased
